Measurements taken from patent publication US20240239878A1 (SHANGHAI QILU PHARMACEUTICAL RESEARCH AND DEVELOPMENT CENTRE, published 2024).

Tests used:
[1] = molecular target: T1, human DLL1 (Sino Biological, Cat. No. 11635-H08H) (human, UniProt O00548 18-545); assay: ELISA, plate coated with human DLL1 at 1 ug/mL, OD 450nm
T1 construct: also called family protein DLL1
T1 sequence: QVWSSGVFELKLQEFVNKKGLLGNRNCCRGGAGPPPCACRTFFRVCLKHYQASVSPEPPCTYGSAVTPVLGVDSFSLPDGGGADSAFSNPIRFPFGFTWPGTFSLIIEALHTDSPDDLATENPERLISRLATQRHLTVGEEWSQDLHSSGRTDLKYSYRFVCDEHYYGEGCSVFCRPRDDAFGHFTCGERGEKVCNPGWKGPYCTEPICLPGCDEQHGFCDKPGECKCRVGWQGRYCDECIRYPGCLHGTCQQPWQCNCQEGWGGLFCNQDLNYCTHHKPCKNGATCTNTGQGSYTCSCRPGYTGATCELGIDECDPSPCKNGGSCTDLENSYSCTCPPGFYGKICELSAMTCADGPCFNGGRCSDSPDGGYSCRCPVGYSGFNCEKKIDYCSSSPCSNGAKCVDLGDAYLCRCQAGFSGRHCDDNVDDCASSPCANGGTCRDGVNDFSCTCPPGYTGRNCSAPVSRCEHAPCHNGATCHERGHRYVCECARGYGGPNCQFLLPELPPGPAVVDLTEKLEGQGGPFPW
Method: The antigenic proteins human DLL1 (SinoBiological, cat. No. 11635-H08H) or human DLL4 (SinoBiological, cat. No. 10171-H08H) were dissolved in 1×PBS at a concentration of 1 μg/mL. […] The antigen was washed three times with PBST, 300 μL/well. The antigen was blocked with 1% BSA (in PBST), 200 µL/well, and incubated at 37° C. for 1.5 hours.
Antibodies to be tested were diluted with 1% BSA (in PBS) at a starting concentration of 100 nM, downwards by a 10-fold gradient for 7 concentrations. The plates were washed three times with PBST, 300 μL/well. The diluted antibody was added to an ELISA plate at 100 μL/well and incubated at room temperature for 2 hours. The antibodies were washed three times with PBST, 300 μL/well. The secondary antibodies (goat anti-human IgG Fc for DLL4 (HRP), 1:20000 dilution; HRP goat anti-mouse IgG (H+L) for DLL1, 1:10000 dilution) were diluted with 1% BSA in PBST. The diluted secondary antibodies were added to the ELISA plate at 100 μL/well and incubated at room temperature for 1 hour. The plates were washed 6 times with PBST, 300 μL/well. The developing solution (TMA and TMB 1:1 mixed) was prepared. The developing solution was added to the plate, 100 μL/well, and incubated in the dark for 5 min. 50 μL of ELISA stop solution was added to the plate and shaken well.

[2] = molecular target: T2, human DLL3 antigen protein (Kactus Biosystems, Cat. No. DLL-HM103) (human, UniProt Q9NYJ7 27-492); assay: SPR (Biacore 8K), antibody captured on anti-human Fc, DLL3 in solution
T2 sequence: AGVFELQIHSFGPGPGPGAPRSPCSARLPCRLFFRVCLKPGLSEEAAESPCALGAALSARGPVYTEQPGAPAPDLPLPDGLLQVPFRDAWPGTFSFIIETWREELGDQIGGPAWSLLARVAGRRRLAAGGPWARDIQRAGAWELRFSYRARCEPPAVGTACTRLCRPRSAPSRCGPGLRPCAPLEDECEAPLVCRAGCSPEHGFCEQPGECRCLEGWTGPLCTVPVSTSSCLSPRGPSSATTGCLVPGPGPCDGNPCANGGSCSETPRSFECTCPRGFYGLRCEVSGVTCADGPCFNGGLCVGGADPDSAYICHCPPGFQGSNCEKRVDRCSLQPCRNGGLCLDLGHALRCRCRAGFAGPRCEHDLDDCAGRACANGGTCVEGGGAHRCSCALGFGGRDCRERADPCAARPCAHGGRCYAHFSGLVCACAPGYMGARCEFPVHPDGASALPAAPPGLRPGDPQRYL
Method: The affinity and kinetic properties of the humanized anti-DLL3 antibody to human DLL3 were analyzed using a Biacore 8K instrument. CM5 chips were activated with EDC and NHS, followed by immobilization of anti-human Fc murine mAb and blocked with ethanolamine.
Human DLL3 was diluted two-fold serially to serial concentrations (100 nM-0.39 nM) and associated for 90 s and dissociated for 600 s at a flow rate of 50 μL/min.
After completion of each round of the experiment, the captured antibody was removed together with the antigen by washing with a 3M MgCl₂ solution at a flow rate of 30 μL/min for 30 s to complete the regeneration of the chip. The raw data were analyzed using Biacore Insight Evaluation Software (3.0.12.15655) software and fitted with a (1:1) Langmuir model with.

[3] = molecular target: T3, Cynomolgus monkey DLL3 antigen protein (Kactus Biosystems, Cat. No. CM103) (Cynomolgus monkey, UniProt Q9NYJ7 27-490 (human entry)); assay: affinity assay with Cynomolgus monkey DLL3 antigen protein (kinetics; method not restated, Biacore as in Example 18 implied)
T3 construct: also called cyno DLL3
T3 chain: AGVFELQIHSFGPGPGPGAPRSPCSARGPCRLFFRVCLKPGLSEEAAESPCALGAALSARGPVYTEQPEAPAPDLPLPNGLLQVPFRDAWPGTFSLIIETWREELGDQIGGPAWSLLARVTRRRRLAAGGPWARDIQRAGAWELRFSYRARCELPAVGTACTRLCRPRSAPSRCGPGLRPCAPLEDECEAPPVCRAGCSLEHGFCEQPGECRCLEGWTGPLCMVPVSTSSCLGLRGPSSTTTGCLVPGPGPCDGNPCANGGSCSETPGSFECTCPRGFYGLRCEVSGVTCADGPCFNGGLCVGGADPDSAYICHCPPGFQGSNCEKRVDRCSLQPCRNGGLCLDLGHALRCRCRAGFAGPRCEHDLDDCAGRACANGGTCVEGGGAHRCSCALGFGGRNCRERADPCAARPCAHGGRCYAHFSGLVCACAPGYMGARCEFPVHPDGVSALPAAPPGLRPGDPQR

B1: H2-39E2D11 mouse hybridoma-derived humanized anti-DLL3 antibody (antibody, V domains shown)
VH: QVQLVQSGAEVKKPGASVKVSCKASGYTFISYWITWVRQAPGQGLEWMGDIYPGSGSTTNYNEKFKSRVTMTRDTSTSTVYMELSSLRSEDTAVYYCARETTVGGAYAMDYWGQGTLVTVSS
VL: EIVLTQSPATLSLSPGERATLSCRASQSINNNLHWYQQKPGQAPRLLIKYVSQSISGIPARFSGSGSGTDFTLTISSLEPEDFAVYYCQQTNSWPLTFGGGTKLEIK
B1 was tested, and the binding result [1] was “no binding (tested: 100 nM)”, the Kd [2] was 0.576 nM and the koff [2] was 0.00018 s⁻¹. The kon [2] was 313000 M⁻¹ s⁻¹, the Kd [3] was 0.143 nM and the koff [3] was 3.16e-05 s⁻¹. It also gave a kon [3] of 221000 M⁻¹ s⁻¹.
